The target of this experiment is T1, AβpE3-38 (human, UniProt P05067 674-709, pyroglutamate at position 3 (N-terminal residue)).
T1 construct: range 3-38; The range counts on Aβ numbering, not on the APP precursor; also called human AβpE3-38
Put plainly: ELISA screening of hybridoma clones. The source says:
The AβpE3 oligomere specific antibodies 9D5H6 (IgG2b) and 8C4D2 (IgG1) were generated by immunizing three Balb/c mice with AβpE3-38. After preparation of the lymph nodes cells were fused with the myeloma cell line P3-X63-Ag8. The hybridoma supernatants of mixed clones were screened by ELISA and subcloned. The monoclonal antibodies 9D5 and 8C4 were selected by ELISA against different N-terminal Aβ epitopes. Clones producing signals with AβpE3-38 and AβpE3-42, but no signal with […] were isolated and further characterized. For comparison, Aβ antibodies 4G8 (Aβ epitope 17-24; Covance), W0-2 (Aβ epitope 4-8; The Genetics Company), NT78 (against generic Aβ1-16, Synaptic Systems) and 2-48 (against N-terminal AβpE3, Synaptic Systems; Wirths, O., et al. J Neural Transm 117, 85-96 (2010)) were used. GFAP (rabbit) and IBA1 (rabbit) antisera were from Synaptic Systems and Wako Pure Chemicals respectively. Peptides were purchased from PSL (Heidelberg, Germany), reconstituted as indicated below and immediately frozen until further use.

T1 sequence (P05067 674-709): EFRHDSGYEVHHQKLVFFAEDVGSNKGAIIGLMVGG

B1: PG3-38 9D5H6 (antibody, V domains shown)
VH: QLQQSGAELMKPGASVKISCKATGYTFSSYWIEWVKQRPGHGLEWIGEILPGRGSTHYNEKFKGKATFTADTSSNTAYMQLSSLTSEDSAVYYCARSPITTSDYWGQGTTLTVSS
VL: DVVMTQTPLSLPVSLGDQASISCRSSQSLLHSNGNTYLHWYLQKPGQSPKLLIYKVSNRFSGVPDRFSGSGSGTDFTLKISRVEAEDLGVYFCSQSTHVPLTFGAGT
notes: The printed VH starts at QLQQ and the printed VL ends at FGAGT, so both may be slightly truncated; also called antibody obtainable from hybridoma DSM ACC3056
Regarding B1, the binding result is “binds”.

Values taken from patent publication US20130295095A1 (GEORG AUGUST UNIVERSIT T G TTINGEN STIFTUNG FFENTLICHEN …, published 2013).
